Results as given in paper PMC7708434 (Biochimica et biophysica acta. General subjects, 2020).
Like-named read-outs stand apart in the source and are kept apart here.

How the values were obtained:
crystal structure [1] = target: the molecule itself; assay: crystal structure
crystal structure [2] = target: the molecule itself; assay: crystal structure; remark: listed apart in the source

| Protein | stoichiometry N (crystal structure [1]) | stoichiometry N (crystal structure [2]) |
| --- | --- | --- |
| 4-hydroxy-tetrahydrodipicolinate reductase (DapB) from Mycobacterium tuberculosis HKBS1 (enzyme) MRVGVLGAKGKVGATMVRAVAAADDLTLSAELDAGDPLSLLTDGNTEVVIDFTHPDVVMGNLEFLIDNGIHAVVGTTGFTAERFQQVESWLVAKPNTSVLIAPNFAIGAVLSMHFAKQAARFFDSAEVIELHHPHKADAPSGTAARTAKLIAEARKGLPPNPDATSTSLPGARGADVDGIPVHAVRLAGLVAHQEVLFGTEGETLTIRHDSLDRTSFVPGVLLAVRRIAERPGLTVGLEPLLDLH | 4 | – |
| 4-hydroxy-tetrahydrodipicolinate reductase (DapB) from Vibrio vulnificus strain CMCP6 (enzyme, UniProt Q8DEM0 1-269, looked up) MVRIAVAGAAGRMGRNLVKAAHHNPVAKVAAGSERPESSLVGVDLGELCGEGKFDVVVCDDLAKQIDQFDVIIDFTAPASTLNNLALCQQYGKSIVIGTTGFTEEQREQIDLVAQQVPVVMAPNYSVGVNLVFKLLEKAAKVMGDYCDIEIVEAHHRHKVDAPSGTAIGMGEAIAGAMGNKLSDVAVYAREGITGERTKDEIGFATIRAGDIVGEHTAMFADIGERVEITHKATDRMTFANGAVKAAVWLHEKPAGFYTMTDVLGLNDL | – | 4 |
